From EP1666595A1 (Beth Israel Deaconess Medical Center, Inc., dated 2006)

T1: SHP-2 (endogenous, in BaF3, P210BCR-ABL BaF3 and BAC1.2F5 cells) (UniProt P35235 2-593)
T1 sequence (looked up): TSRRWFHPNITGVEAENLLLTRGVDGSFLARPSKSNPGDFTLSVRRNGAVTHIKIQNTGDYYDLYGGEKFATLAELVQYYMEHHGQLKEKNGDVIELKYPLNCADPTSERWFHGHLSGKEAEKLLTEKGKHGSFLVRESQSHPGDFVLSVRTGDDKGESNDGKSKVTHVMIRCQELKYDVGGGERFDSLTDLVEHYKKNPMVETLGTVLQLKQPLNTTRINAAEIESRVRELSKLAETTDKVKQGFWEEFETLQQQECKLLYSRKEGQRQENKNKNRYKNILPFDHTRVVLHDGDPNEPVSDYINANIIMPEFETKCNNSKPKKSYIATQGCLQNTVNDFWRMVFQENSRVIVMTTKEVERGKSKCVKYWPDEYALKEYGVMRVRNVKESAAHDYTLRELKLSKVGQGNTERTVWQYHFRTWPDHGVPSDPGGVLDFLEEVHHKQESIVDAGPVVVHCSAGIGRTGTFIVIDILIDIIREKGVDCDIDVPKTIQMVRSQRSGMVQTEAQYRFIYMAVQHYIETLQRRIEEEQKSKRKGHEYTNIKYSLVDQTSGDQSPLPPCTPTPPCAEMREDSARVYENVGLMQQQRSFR

B1: Gab2HA (HA-tagged wild type Gab2) (other, not shown: small tags and cut ends)
chain: MSGGGGDDVVCTGWLRKSPPEKKLRRYAWKKRWFILRSGRMSGDPDVLEYYKNEHSKKPLRIINLNLCEQVDAGLTFNKKELQDSFVFDIKTSERTFYLVAETEADMNKWVQSICQICGFNQAEESTDSLRNLSSASHGPRSSPAEFSSSQHLLRERKSSAPSHSSQPTLFTFEPPVSSHMQPTLSTSAPQEYLYLHQCISRRTENARSASFSQGTRQKSDTAVQKLAQSNGHCINGVGGQVHGFYSLPKPSRHNTEFKDSTYDLPRSLASHGHTKSSLTGSETDNEDVYTFKMPSNTLCRELGDLLVDNMDVPTTPLSAYQIPRTFTLDKNHNAMTVATPGDSAIAPPPRPPKPSQAETSQWGSIQQRPPISENSRSVAATIPRRNTLPAMDNSRLHRASSCETYEYPARGSGESASWSAEPPGKTAVGRSNSASSDDNYVPMNPGSSTLLAMERPGDNSQSVYIPMSPGPHHFDPLGYPSTALPIHRGPSRGSEIQPPPVNRNLKPDRKAKPTPLDLRNNTVIDELPFKSPVTKSWSRINSHTFNSSSSQYCRPISTQSITSTDSGDSEENYVPMQNPVSASPVPSGTNSPAPKKSTGSVDYLALDFQPGSPSPHRKPSTSSVTSDEKVDYVQVDKEKTQALQNTMQEWTDVRQSSEPSKGAKL
modifications: tyrosyl phosphorylated upon IL-3 stimulation
B2: Crk (endogenous, in BaF3 cells) (other, UniProt Q64010 2-304, looked up)
chain: AGNFDSEERSSWYWGRLSRQEAVALLQGQRHGVFLVRDSSTSPGDYVLSVSENSRVSHYIINSSGPRPPVPPSPAQPPPGVSPSRLRIGDQEFDSLPALLEFYKIHYLDTTTLIEPVARSRQGSGVILRQEEAEYVRALFDFNGNDEEDLPFKKGDILRIRDKPEEQWWNAEDSEGKRGMIPVPYVEKYRPASASVSALIGGNQEGSHPQPLGGPEPGPYAQPSVNTPLPNLQNGPIYARVIQKRVPNAYDKTALALEVGELVKVTKINVSGQWEGECNGKRGHFPFTHVRLLDQQNPDEDFS
B3: Crk-L (endogenous, in BaF3 cells) (other, UniProt P47941 1-303, looked up)
chain: MSSARFDSSDRSAWYMGPVTRQEAQTRLQGQRHGMFLVRDSSTCPGDYVLSVSENSRVSHYIINSLPNRRFKIGDQEFDHLPALLEFYKIHYLDTTTLIEPAPRYPSPPVGSVSAPNLPTAEENLEYVRTLYDFPGNDAEDLPFKKGELLVIIEKPEEQWWSARNKDGRVGMIPVPYVEKLVRSSPHGKHGNRNSNSYGIPEPAHAYAQPQTTTPLPTVASTPGAAINPLPSTQNGPVFAKAIQKRVPCAYDKTALALEVGDIVKVTRMNINGQWEGEVNGRKGLFPFTHVKIFDPQNPDDNE
notes: Named in brackets next to Crk

Key:
[1] = molecular target: T1, SHP-2 (endogenous, in BaF3, P210BCR-ABL …); assay: cell-based or functional assay
[2] = molecular target: B1; assay: immunoprecipitation and immunoblotting, transfected BaF3 cells
[3] = molecular target: T2, Gab2 (endogenous, in BaF3, P210BCR-ABL BaF3 and BAC1.2F5 cells) (Mus musculus (Mouse), UniProt Q9Z1S8 1-665, tyrosyl phosphorylated upon stimulation; Y604 and Y633 'both sites are highly phosphorylated'); assay: immunoprecipitation and immunoblotting, BaF3 cells
T2 construct: BaF3 is a murine line, and KIAA0571 is called the possible human homolog; also called p97; p97/Gab2

basal c-fos luciferase activity [1] [fold] | binding result [2] | binding result [3] | Binder
~2 | – | – | B1
– | no binding | no binding | B2
– | no binding | no binding | B3
